Data as given in patent US20260092093A1 (TJ BIOPHARMA SHANGHAI, published 2026).
Residue numbers refer to the chain shown, from its start.

Legend:
Assay in all cases: cell-based or functional assay
hIL-18BP-hFc [1] = molecular target: T1, hIL-18BP-hFc (human, UniProt O95998 31-194, limits assumed)
T1 sequence (looked up): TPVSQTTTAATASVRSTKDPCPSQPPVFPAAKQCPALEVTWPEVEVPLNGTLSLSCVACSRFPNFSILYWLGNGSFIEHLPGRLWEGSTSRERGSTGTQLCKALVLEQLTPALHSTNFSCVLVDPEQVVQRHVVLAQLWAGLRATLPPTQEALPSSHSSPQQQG

[2] = molecular target: T2, hIL-18 receptor (hIL-18Rα and hIL-18Rβ) (human, UniProt Q13478 19-541; O95256 20-599)
T2 sequence (looked up) 1: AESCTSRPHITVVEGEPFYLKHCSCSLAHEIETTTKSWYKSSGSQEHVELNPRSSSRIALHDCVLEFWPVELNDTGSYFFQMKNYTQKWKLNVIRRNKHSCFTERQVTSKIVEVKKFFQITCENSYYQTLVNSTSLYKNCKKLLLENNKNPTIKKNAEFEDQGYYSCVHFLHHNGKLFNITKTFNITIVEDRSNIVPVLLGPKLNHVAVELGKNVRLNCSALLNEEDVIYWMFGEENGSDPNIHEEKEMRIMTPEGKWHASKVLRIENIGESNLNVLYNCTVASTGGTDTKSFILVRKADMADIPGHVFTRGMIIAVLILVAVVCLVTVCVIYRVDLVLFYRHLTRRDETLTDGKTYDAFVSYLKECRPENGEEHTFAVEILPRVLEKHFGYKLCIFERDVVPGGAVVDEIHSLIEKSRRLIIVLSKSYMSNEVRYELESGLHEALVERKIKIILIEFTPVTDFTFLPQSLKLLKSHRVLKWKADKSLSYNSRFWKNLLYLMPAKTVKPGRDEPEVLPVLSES
T2 sequence (looked up) 2: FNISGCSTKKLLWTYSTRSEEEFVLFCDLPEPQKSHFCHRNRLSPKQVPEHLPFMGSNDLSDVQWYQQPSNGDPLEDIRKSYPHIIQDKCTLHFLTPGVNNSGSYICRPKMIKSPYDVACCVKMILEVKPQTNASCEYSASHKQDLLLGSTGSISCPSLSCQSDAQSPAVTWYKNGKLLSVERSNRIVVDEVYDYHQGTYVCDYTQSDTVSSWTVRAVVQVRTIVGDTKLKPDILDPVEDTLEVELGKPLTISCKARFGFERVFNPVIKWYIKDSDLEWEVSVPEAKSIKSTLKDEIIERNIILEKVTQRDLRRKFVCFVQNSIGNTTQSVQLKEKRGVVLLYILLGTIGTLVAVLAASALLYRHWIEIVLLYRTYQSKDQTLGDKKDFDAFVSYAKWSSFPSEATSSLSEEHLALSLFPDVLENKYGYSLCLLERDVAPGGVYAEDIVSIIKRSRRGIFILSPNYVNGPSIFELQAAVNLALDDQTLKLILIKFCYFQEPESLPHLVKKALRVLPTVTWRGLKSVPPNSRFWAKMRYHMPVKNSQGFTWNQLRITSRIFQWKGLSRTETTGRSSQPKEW

hIL-18BP-hFc [3] = molecular target: T1, hIL-18BP-hFc; remark: listed apart in the source
[4] = molecular target: T2, hIL-18 receptor (hIL-18Rα and hIL-18Rβ); remark: listed apart in the source

B1: IL-18 variant polypeptide M35 (ligand)
chain: YFPKLRSKLSVIRNLNDQVLFIDQGNRPLFEDMTDSDCRDNAPRTIFIISMYKGSGARGMAVTISVKCEKISTLSCENKIISFKEMNPPDGIKDTKSDIIFFQRSVPGHDNKMQFESSSYEGYFLACEKERDLFKLILKKEDELGDRSIMFTVQNED
hIL-18BP-hFc [1]
  EC50 (nM) in the Presence of 1 µg/mL hIL-18BP-hFc, hIL-18 reporter assay: 0.51 nM
  EC50 Fold Change (+BP/-BP), hIL-18 reporter assay: 0.82 fold
[2]
  EC50 (nM), hIL-18 reporter assay: 0.62 nM
hIL-18BP-hFc [3]
  EC50 (nM) in the Presence of 1 µg/mL hIL-18BP-hFc, PBMC assay (hIFNγ release): 0.14 nM
  EC50 Fold Change (+BP/-BP), PBMC assay (hIFNγ release): 1.65 fold
[4]
  EC50 (nM), PBMC assay (hIFNγ release): 0.085 nM

B2: IL-18 variant polypeptide M24 (ligand)
chain: B1 chain with G54Y, G56T, A57S, G91N
hIL-18BP-hFc [1]
  EC50 (nM) in the Presence of 1 µg/mL hIL-18BP-hFc, hIL-18 reporter assay: 1.99 nM
  EC50 Fold Change (+BP/-BP), hIL-18 reporter assay: 2.01 fold
[2]
  EC50 (nM), hIL-18 reporter assay: 0.99 nM
hIL-18BP-hFc [3]
  EC50 (nM) in the Presence of 1 µg/mL hIL-18BP-hFc, PBMC assay (hIFNγ release): 0.08 nM
  EC50 Fold Change (+BP/-BP), PBMC assay (hIFNγ release): 1.48 fold
[4]
  EC50 (nM), PBMC assay (hIFNγ release): 0.054 nM

B3: IL-18 variant polypeptide M15 (ligand)
chain: B1 chain with G54S, G56Y, A57T
hIL-18BP-hFc [1]
  EC50 (nM) in the Presence of 1 µg/mL hIL-18BP-hFc, hIL-18 reporter assay: 0.12 nM
  EC50 Fold Change (+BP/-BP), hIL-18 reporter assay: 0.92 fold
[2]
  EC50 (nM), hIL-18 reporter assay: 0.13 nM
hIL-18BP-hFc [3]
  EC50 (nM) in the Presence of 1 µg/mL hIL-18BP-hFc, PBMC assay (hIFNγ release): 0.036 nM
  EC50 Fold Change (+BP/-BP), PBMC assay (hIFNγ release): 0.73 fold
[4]
  EC50 (nM), PBMC assay (hIFNγ release): 0.049 nM

B4: IL-18 variant polypeptide M12 (ligand)
chain: B1 chain with R6K, G91T
hIL-18BP-hFc [1]
  EC50 (nM) in the Presence of 1 µg/mL hIL-18BP-hFc, hIL-18 reporter assay: 0.03 nM
  EC50 Fold Change (+BP/-BP), hIL-18 reporter assay: 0.75 fold
[2]
  EC50 (nM), hIL-18 reporter assay: 0.04 nM
hIL-18BP-hFc [3]
  EC50 (nM) in the Presence of 1 µg/mL hIL-18BP-hFc, PBMC assay (hIFNγ release): 0.045 nM
  EC50 Fold Change (+BP/-BP), PBMC assay (hIFNγ release): 1.05 fold
[4]
  EC50 (nM), PBMC assay (hIFNγ release): 0.043 nM

B5: IL-18 variant polypeptide M11 (ligand)
chain: B1 chain with G54S, G56R, A57N, R104T
hIL-18BP-hFc [1]
  EC50 (nM) in the Presence of 1 µg/mL hIL-18BP-hFc, hIL-18 reporter assay: 0.21 nM
  EC50 Fold Change (+BP/-BP), hIL-18 reporter assay: 1.62 fold
[2]
  EC50 (nM), hIL-18 reporter assay: 0.13 nM
hIL-18BP-hFc [3]
  EC50 (nM) in the Presence of 1 µg/mL hIL-18BP-hFc, PBMC assay (hIFNγ release): 0.068 nM
  EC50 Fold Change (+BP/-BP), PBMC assay (hIFNγ release): 1.55 fold
[4]
  EC50 (nM), PBMC assay (hIFNγ release): 0.044 nM

B6: IL-18 variant polypeptide M21 (ligand)
chain: B1 chain with G54S, G56S, A57T, R104S
hIL-18BP-hFc [1]
  EC50 (nM) in the Presence of 1 µg/mL hIL-18BP-hFc, hIL-18 reporter assay: 2.1 nM
  EC50 Fold Change (+BP/-BP), hIL-18 reporter assay: 1.11 fold
[2]
  EC50 (nM), hIL-18 reporter assay: 1.9 nM
hIL-18BP-hFc [3]
  EC50 (nM) in the Presence of 1 µg/mL hIL-18BP-hFc, PBMC assay (hIFNγ release): 0.049 nM
  EC50 Fold Change (+BP/-BP), PBMC assay (hIFNγ release): 1.09 fold
[4]
  EC50 (nM), PBMC assay (hIFNγ release): 0.045 nM

B7: IL-18 variant polypeptide MM5 (ligand)
chain: B1 chain with P3G, R6G, G54L, G56T, A57E, R104S
hIL-18BP-hFc [1]
  EC50 (nM) in the Presence of 1 µg/mL hIL-18BP-hFc, hIL-18 reporter assay: 0.08 nM
  EC50 Fold Change (+BP/-BP), hIL-18 reporter assay: 2.86 fold
[2]
  EC50 (nM), hIL-18 reporter assay: 0.028 nM
hIL-18BP-hFc [3]
  EC50 (nM) in the Presence of 1 µg/mL hIL-18BP-hFc, PBMC assay (hIFNγ release): 0.045 nM
  EC50 Fold Change (+BP/-BP), PBMC assay (hIFNγ release): 1.29 fold
[4]
  EC50 (nM), PBMC assay (hIFNγ release): 0.035 nM

B8: IL-18 variant polypeptide WM8 (ligand)
chain: B1 chain with G54D, G56Q, A57P, G91S
hIL-18BP-hFc [1]
  EC50 (nM) in the Presence of 1 µg/mL hIL-18BP-hFc, hIL-18 reporter assay: 5.2 nM
  EC50 Fold Change (+BP/-BP), hIL-18 reporter assay: 0.74 fold
[2]
  EC50 (nM), hIL-18 reporter assay: 7 nM
hIL-18BP-hFc [3]
  EC50 (nM) in the Presence of 1 µg/mL hIL-18BP-hFc, PBMC assay (hIFNγ release): 1.02 nM
  EC50 Fold Change (+BP/-BP), PBMC assay (hIFNγ release): 1.5 fold
[4]
  EC50 (nM), PBMC assay (hIFNγ release): 0.68 nM

B9: IL-18 variant polypeptide WM10 (ligand)
chain: B1 chain with R6K, G54D, G56Q, A57P, G91S
hIL-18BP-hFc [1]
  EC50 (nM) in the Presence of 1 µg/mL hIL-18BP-hFc, hIL-18 reporter assay: 15.6 nM
  EC50 Fold Change (+BP/-BP), hIL-18 reporter assay: 1.06 fold
[2]
  EC50 (nM), hIL-18 reporter assay: 14.7 nM
hIL-18BP-hFc [3]
  EC50 (nM) in the Presence of 1 µg/mL hIL-18BP-hFc, PBMC assay (hIFNγ release): 0.44 nM
  EC50 Fold Change (+BP/-BP), PBMC assay (hIFNγ release): 0.83 fold
[4]
  EC50 (nM), PBMC assay (hIFNγ release): 0.53 nM

B10: IL-18 variant polypeptide M17 (ligand)
chain: B1 chain with G54L, G56T
hIL-18BP-hFc [1]
  EC50 (nM) in the Presence of 1 µg/mL hIL-18BP-hFc, hIL-18 reporter assay: 0.32 nM
  EC50 Fold Change (+BP/-BP), hIL-18 reporter assay: 0.78 fold
[2]
  EC50 (nM), hIL-18 reporter assay: 0.41 nM
hIL-18BP-hFc [3]
  EC50 (nM) in the Presence of 1 µg/mL hIL-18BP-hFc, PBMC assay (hIFNγ release): 0.13 nM
  EC50 Fold Change (+BP/-BP), PBMC assay (hIFNγ release): 1 fold
[4]
  EC50 (nM), PBMC assay (hIFNγ release): 0.13 nM

B11: IL-18 variant polypeptide M36 (ligand)
chain: B1 chain with R6S, G54A, G56D, A57Q
hIL-18BP-hFc [1]
  EC50 (nM) in the Presence of 1 µg/mL hIL-18BP-hFc, hIL-18 reporter assay: 2.5 nM
  EC50 Fold Change (+BP/-BP), hIL-18 reporter assay: 0.64 fold
[2]
  EC50 (nM), hIL-18 reporter assay: 3.9 nM
hIL-18BP-hFc [3]
  EC50 (nM) in the Presence of 1 µg/mL hIL-18BP-hFc, PBMC assay (hIFNγ release): 0.8 nM
  EC50 Fold Change (+BP/-BP), PBMC assay (hIFNγ release): 0.73 fold
[4]
  EC50 (nM), PBMC assay (hIFNγ release): 1.1 nM

B12: IL-18 variant polypeptide M13 (ligand)
chain: B1 chain with R6K, G54Q, G56I, A57W, G91N
hIL-18BP-hFc [1]
  EC50 (nM) in the Presence of 1 µg/mL hIL-18BP-hFc, hIL-18 reporter assay: 0.026 nM
  EC50 Fold Change (+BP/-BP), hIL-18 reporter assay: 0.74 fold
[2]
  EC50 (nM), hIL-18 reporter assay: 0.035 nM
hIL-18BP-hFc [3]
  EC50 (nM) in the Presence of 1 µg/mL hIL-18BP-hFc, PBMC assay (hIFNγ release): 0.025 nM
  EC50 Fold Change (+BP/-BP), PBMC assay (hIFNγ release): 1.25 fold
[4]
  EC50 (nM), PBMC assay (hIFNγ release): 0.02 nM
